Measured values taken from article PMC55327 (Genome Biology, 2001).

Tests used:
[1] = biological target: T1, *AatIβ (periplasmic aromatic aminotransferase) (Pseudomonas aeruginosa, UniProt Q9I0V2); assay: aromatic aminotransferase activity assay; assay type: biochemical; conditions: activity followed through purification
T1 sequence (Q9I0V2 29-374): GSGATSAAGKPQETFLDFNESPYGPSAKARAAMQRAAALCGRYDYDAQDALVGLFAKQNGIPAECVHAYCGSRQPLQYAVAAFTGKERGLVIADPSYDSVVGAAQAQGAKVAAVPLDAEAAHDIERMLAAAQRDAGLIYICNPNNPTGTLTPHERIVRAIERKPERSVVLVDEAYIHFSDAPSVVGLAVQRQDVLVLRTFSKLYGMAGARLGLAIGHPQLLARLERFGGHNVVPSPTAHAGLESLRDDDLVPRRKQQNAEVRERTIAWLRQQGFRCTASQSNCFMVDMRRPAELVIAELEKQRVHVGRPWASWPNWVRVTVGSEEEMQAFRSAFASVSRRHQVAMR

[2] = tested on: C=C(O[C@@H]1C=C(C(=O)O)C=C[C@H]1O)C(=O)O; assay: purified protein; assay type: biochemical, Pantoea agglomerans; conditions: 32°C, 40–75 nM enzyme, 0.1 mg/ml bovine serum albumin
[3] = tested on: C=C(O[C@@H]1C=C(C(=O)O)C=C[C@H]1O)C(=O)O; assay: purified protein; assay type: biochemical, Salmonella enterica; conditions: 32°C, 40–75 nM enzyme, 0.1 mg/ml bovine serum albumin
purified protein = substrate: C=C(O[C@@H]1C=C(C(=O)O)C=C[C@H]1O)C(=O)O; assay: purified protein; assay type: biochemical, Pseudomonas aeruginosa; conditions: 32°C, 40–75 nM enzyme, 0.1 mg/ml bovine serum albumin

## N[C@@H](Cc1ccccc1)C(=O)O [phenylalanine]
[1]; co-substrate α-ketoglutarate
  aromatic aminotransferase activity assay: phenylalanine and α-ketoglutarate were used as the substrates, unless indicated otherwise

## O=C(O)CCC(=O)C(=O)O [α-ketoglutarate]
[1]; co-substrate phenylalanine
  aromatic aminotransferase activity assay: phenylalanine and α-ketoglutarate were used as the substrates, unless indicated otherwise

## *AroQ (Erwinia herbicola periplasmic chorismate mutase) (Pantoea agglomerans)
[2]
  Km: 169 µM
  kcat: 9.7 s⁻¹

## *AroQ (Salmonella typhimurium periplasmic chorismate mutase) (Salmonella enterica subsp. enterica serovar Typhimurium)
[3]
  Km: 142 µM
  kcat: 8.9 s⁻¹

B1: *AroQ (Pseudomonas aeruginosa periplasmic chorismate mutase) (Pseudomonas aeruginosa PAO1) (protein)
chain: QPLSPALQQLLSLSSQRLQLADQVAQSKAQSGKAVQDSPREEQQLQMLAGQAGSHGVGAEQVRLLFAAQIEANKLVQYRLLSRPLPDAGQAVDLERIRSRLNQLNLELLRGYAPALAELRVDDCRPRLNQALQRQVRVDRLDELHAIALSRAAGDLCHWAEL
Purified protein
  kcat: 6.4 s⁻¹
